The source of these data is patent US20240238445A1, “INHIBITORS AND USES THEREOF” (NEURACLE SCIENCE CO., LTD., priority 2021, published 2024).

Experiment [1] deals with interaction between His-TEV LRRC4B and rFAM19A5 (Homo sapiens, UniProt Q7Z5A7). Nature of the experiment: Competitive inhibition assay (IC50), plate coated with His-TEV LRRC4B. It counts as binding. As for the experimental part: To further assess the inhibitory effect of the FB-21 mutants, the ability of additional FB-21 mutants described in Example 9 were tested for their ability to inhibit the interaction between FAM19A5 protein and LRRC4B protein. Briefly, plates were coated with 100 nM of His-TEV LRRC4B and then 1 ng/mL of rFAM19A5 was incubated at 37° C. in the presence of increasing concentrations of the FB-21 peptide fragments (0.3, 1, 3, 10, 30, 100, 300, 1000, 3000 and 10000 nM). The LRRC4B-bound FAM19A5 levels were measured using HRP-conjugated 1-65 SS01 antibody. As shown in FIG. 22B (see Table 15 for IC50), most (if not all) of the FB-21 mutants had improved ability in inhibiting the interaction between LRRC4B and recombinant FAM19A5 protein.
Sequence of interaction between His-TEV LRRC4B and rFAM19A5 (Q7Z5A7 44-132): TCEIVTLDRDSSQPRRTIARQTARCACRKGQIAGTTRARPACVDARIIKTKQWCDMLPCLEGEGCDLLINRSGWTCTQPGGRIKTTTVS
Next, to assess whether other properties of the polypeptides described herein can be improved (e.g., solubility, prevention of degradation from protease and peptidase, and in vivo administration), the following additional FB-21 peptide mutants were constructed and tested for their ability to inhibit the interaction between FAM19A5 protein and LRRC4B: (1) d-form FB-21 peptide (“dFB-21”), (2) d-form FB-21 peptide with juxta-membrane (JM) sequence (“dFB-JM-31”), (3) d-form FB-21 peptide with BBB penetrating sequence at each end of the sequence (“dFB-BBB-39”), and (4) d-form FB-21 mutant peptide with DY replacement and additional JM sequence (“dFB-DY-JM31”). The sequence for d-form FB-21 peptide is set forth in SEQ ID NO: 153 (nYTYFTTVTVETLETQPGEEa; wherein the lowercase amino acids represent D-form of the amino acid, and the uppercase amino acids represent L-form of the amino acid). The sequence for dFB-BBB-39 is set forth in SEQ ID NO: 154 (n[…]l; wherein the lowercase amino acids represent D-form of the amino acid, and the uppercase amino acids represent L-form of the amino acid). The sequence for dFB-JM-31 is set forth in SEQ ID NO: 155 (n[…]a; wherein the lowercase amino acids represent D-form of the amino acid, and the uppercase amino acids represent L-form of the amino acid). The sequence for dFB-DY-JM31 is set forth in SEQ ID NO: 156 (n[…]a; wherein the lowercase amino acids represent D-form of the amino acid, and the uppercase amino acids represent L-form of the amino acid). The overall experimental methods were the same as those described immediately above.

Experiment [2] deals with mouse primary cortical neurons. Nature of the experiment: Neurite growth of mouse primary cortical neurons in vitro. It counts as cell-based. The note with it: treated days 1 and 2, assessed day 3, anti-beta-tubulin III; LRRC4B fragment 0.006 to 60 nM; versus control. The method, then:
Next, primary cortical neurons (day 1 postnatal) were cultured in vitro with varying concentrations (0.006 to 60 nM) of the LRRC4B (453-576) protein fragment (i.e., amino acid residues 453-576 of SEQ ID NO: 2; SEQ ID NO: 7), and then at day 3 post-initial culture, the effect on neurite growth was assessed by immunostaining the cells with anti-beta-tubulin III antibody. Cells cultured with DMSO (“Veh”) were used as control.
Mouse hippocampal neurons were treated with LRRC4B peptides at 1 and 2 DIV to determine neurite growth. It was measured by using 3 different parameters, which are total neurites length, number of primary and secondary neurites. After the neurons were stained with beta-tubulin III at 3 DIV, neurites length and branch points were measured using Fiji (Image J, NIH, Bethesda). Individual neurons were selected by hand and these parameters were counted using the Simple neurite tracer plugin. Mouse spinal motor neurons sampled at postnatal day 1 were treated with 10 nM of NS101 and LRRC4B-peptides (dFB-dWY-JM31 and dFB-DY-JM31) at 1 and 2 DIV and immunostained with Tau-5 antibody at 3 DIV. Total neurite length and number of somas in images were measured by Neurphology Image J plugin.

In experiment [3] the target is T1, FAM19A5 protein (Homo sapiens, UniProt Q7Z5A7). Briefly: ELISA binding of recombinant FAM19A5 to coated hFc-conjugated LRRC4 family ectodomains, fragments or synthetic peptides. The note with it: for binding to FAM19A5 protein (ELISA, in words): coated 100 nM/well, FAM19A5 up to 10 nM. As for the experimental part: Next, to confirm the above co-immunoprecipitation results, an ELISA assay was used to measure the binding of the FAM19A5 protein to either the full-length ectodomain of members of LRRC4 protein family or various LRRC4B ectodomain protein fragments. Specifically, an ELISA plate was coated with one of the following LRRC4B ectodomain protein, which was conjugated to human Fc (100 nM/well): (1) full-length ectodomain of LRRC4 protein (amino acid residues 39-527 of SEQ ID NO: 1) (SEQ ID NO: 4); (2) full-length ectodomain of LRRC4B protein (amino acids 36-576 of SEQ ID NO: 2; i.e., construct #7 in Table 6) (SEQ ID NO: 5); (3) full-length ectodomain of LRRC4C protein (amino acids 45-527 of SEQ ID NO: 3) (SEQ ID NO: 6); (4) LRRC4B ectodomain fragment (amino acids 453-576 of SEQ ID NO: 2; i.e., construct #11 in Table 6) (SEQ ID NO: 7); (5) LRRC4B ectodomain fragment (amino acids 484-576 of SEQ ID NO: 2; i.e., construct #12 in Table 6) (SEQ ID NO: 8); (6) LRRC4B ectodomain fragment (amino acids 482-576 of SEQ ID NO: 2) (SEQ ID NO: 9); (7) LRRC4B ectodomain fragment (amino acids 482-497 of SEQ ID NO: 2) (SEQ ID NO: 10); and (8) LRRC4B ectodomain fragment (amino acids 498-576 of SEQ ID NO: 2; i.e., construct #13 in Table 6) (SEQ ID NO: 11). Then, recombinant FAM19A5 proteins (0.005, 0.01, 0.025, 0.05, 0.1, 0.25, 0.5, 1, 2.5, 5, and 10 nM) were added to the relevant wells, and the plates were incubated at 37° C. for 1 hour. Afterwards, the amount of LRRC4B-bound FAM19A5 protein was detected using HRP-conjugated anti-FAM19A5 (1-65) antibody.
T1 sequence (Q7Z5A7 44-132): as above
As further confirmation, three synthetic polypeptides comprising amino acids 484-497 of SEQ ID NO: 2 (i.e., YTYFTTVTVETLET; SEQ ID NO: 65) were constructed: (1) FB-16 (GYTYFTTVTVETLETQ; SEQ ID NO: 17), (2) FB-20 ([…]; SEQ ID NO: 18), and (3) FB-28 ([…]; SEQ ID NO: 19). The peptides differed in their total length. The ability of these polypeptides to bind to recombinant FAM19A5 protein was assessed using an ELISA assay as described above.

In experiment [4] the target is T1, FAM19A5 protein. Nature of the experiment: Co-immunoprecipitation of FLAG-tagged LRRC4 family deletion constructs/fragments with recombinant FAM19A5 in HEK293 cells. It counts as binding. Conditions: HEK293 cells expressing FLAG-tagged construct, recombinant FAM19A5 1 μM 30 minutes; IP anti-FLAG, blot anti-FAM19A5 (3-2). The method, then:
To understand the interaction between FAM19A5 and members of the LRRC4 protein family, HEK293 cells were modified to express a FLAG-tagged member of the LRRC4 protein family, i.e., LRRC4C protein, LRRC4 protein, or LRRC4B protein. Then, the HEK293 cells or primary cortical neurons were treated with recombinant FAM19A5 protein (1 μM) for 30 minutes, and the binding between FAM19A5 protein and the different members of the LRRC4 protein family was assessed using both co-immunoprecipitation and immunofluorescence assays.
For the co-immunoprecipitation assay, cell lysates from the different FAM19A5-treated HEK293 cells were collected and immunoprecipitated with an anti-FLAG antibody, anti-FAM19A5 (1-65) antibody, or a human IgG antibody (control). Immunoprecipitated proteins were immunoblotted with anti-FLAG and anti-FAM19A5 (3-2) antibodies. For the immunofluorescence assay, the HEK293 cells treated with the recombinant FAM19A5 protein were immunostained with anti-FAM19A5 (3-2) (to detect FAM19A5 protein expression) and anti-FLAG antibodies (to detect member of the LRRC4 protein family). The primary cortical neurons treated with the recombinant FAM19A5 protein were immunostained with anti-FAM19A5 (3-2) and anti-LRRC4B antibodies. The nuclei were stained with Hoechst33342 (blue).
To determine the specific motif or domain of the LRRC4B protein that is responsible for the binding to a FAM19A5 protein, various FLAG-tagged LRRC4B deletion constructs were generated (see Table 6 below). HEK293 cells were transfected with the different deletion constructs and then treated with recombinant FAM19A5 protein as described in Example 1. Then, the cell lysates from the different HEK293 cells were immunoprecipitated with the anti-FLAG antibody. The immunoprecipitated proteins were immunoblotted with anti-FLAG and anti-FAM19A5 (3-2) antibodies.
As described in Example 2, all members of the LRRC4 protein family were capable of binding to FAM19A5 protein to varying degrees. Therefore, to compare the bindings domains, the amino acid sequences of the LRRC4B, LRRC4, and LRRC4C proteins were aligned. […] Therefore, to assess whether the corresponding positions of LRRC4 and LRRC4C were important in the binding of these proteins to FAM19A5 protein, cDNAs encoding either (i) LRRC4C protein fragment (amino acids 354-527 of SEQ ID NO: 3; SEQ ID NO: 66) or (ii) LRRC4 protein fragment (amino acids 353-527 of SEQ ID NO: 1; SEQ ID NO: 67) were constructed (see Table 7). HEK293 cells were transfected to express either of the protein fragments and then treated with recombinant FAM19A5 protein as described in Example 1. Then, the cell lysates from the different HEK293 cells were immunoprecipitated with the anti-FLAG antibody. The immunoprecipitated proteins were immunoblotted with anti-FLAG and anti-FAM19A5 (3-2) antibodies.

Square brackets hold non-standard residues; d marks the D form. Ends that are not written are not given here.

For the molecule “nYTYFTTVTVEDYETQPGEEALDEVMKTTKa ([dN]YTYFTTVTVEDYETQPGEEALDEVMKTTK[dA]; also: terminal modifications n and a on first and last residues) [dFB-DY-JM31]”, the “fold more effective in inhibiting complex formation compared to the wild-type FB-21” value in experiment [1] (FIG. 22C, D-form amino acids at both termini) was 4 fold.
In the case of GYTYFTTVTVETLETQ [FB-16], the “neurite growth / neurite outgrowth” value in experiment [2] was “Increased neurite outgrowth”. Also, the “binding to FAM19A5 protein (ELISA, in words)” value (shortened to “binding … (ELISA, in words)”) with FAM19A5 protein [3] is “able to bind to recombinant FAM19A5 protein with high affinity”.
As to GYTYFTTVTVEDYETQPGEE [FB-21 (D12Y13)], in experiment [1] (from IC50 of Table 15), the “fold more effective in dissociating LRRC4B-FAM19A5 complex formation compared to FB-21” value turned out to be 2.4 fold and the “fold more effective in dissociating LRRC4B-FAM19A5 complex formation compared to FB-21 (W12Y13)” value was determined as 7 fold.
Regarding GYTYFTTVTVETLETQPGEKEPPGPTTD [FB-28], in experiment [2], the “neurite growth / neurite outgrowth” value was “Increased neurite outgrowth”. Further, the “binding … (ELISA, in words)” value with FAM19A5 protein [3] is “able to bind to recombinant FAM19A5 protein with high affinity”.

B1: full-length LRRC4C protein: full-length ectodomain of LRRC4C protein, amino acids 45-527 of SEQ ID NO: 3, conjugated to human Fc (protein)
chain: QTCPSVCSCSNQFSKVICVRKNLREVPDGISTNTRLLNLHENQIQIIKVNSFKHLRHLEILQLSRNHIRTIEIGAFNGLANLNTLELFDNRLTTIPNGAFVYLSKLKELWLRNNPIESIPSYAFNRIPSLRRLDLGELKRLSYISEGAFEGLSNLRYLNLAMCNLREIPNLTPLIKLDELDLSGNHLSAIRPGSFQGLMHLQKLWMIQSQIQVIERNAFDNLQSLVEINLAHNNLTLLPHDLFTPLHHLERIHLHHNPWNCNCDILWLSWWIKDMAPSNTACCARCNTPPNLKGRYIGELDQNYFTCYAPVIVEPPADLNVTEGMAAELKCRASTSLTSVSWITPNGTVMTHGAYKVRIAVLSDGTLNFTNVTVQDTGMYTCMVSNSVGNTTASATLNVTAATTTPFSYFSTVTVETMEPSQDEARTTDNNVGPTPVVDWETTNVTTSLTPQSTRSTEKTFTIPVTDINSGIPGIDEVMKTTK
modifications: conjugated to human Fc
Turning to B1, in the experiment with FAM19A5 protein [3], the “binding … (ELISA, in words)” value is “No saturation in binding was observed”.

B2: LRRC4B (36-576): full-length ectodomain of LRRC4B protein, amino acids 36-576 of SEQ ID NO: 2; FLAG-tagged or conjugated to human Fc (protein)
chain: AGGGGVAVTSAAGGGSPPATSCPVACSCSNQASRVICTRRDLAEVPASIPVNTRYLNLQENGIQVIRTDTFKHLRHLEILQLSKNLVRKIEVGAFNGLPSLNTLELFDNRLTTVPTQAFEYLSKLRELWLRNNPIESIPSYAFNRVPSLRRLDLGELKRLEYISEAAFEGLVNLRYLNLGMCNLKDIPNLTALVRLEELELSGNRLDLIRPGSFQGLTSLRKLWLMHAQVATIERNAFDDLKSLEELNLSHNNLMSLPHDLFTPLHRLERVHLNHNPWHCNCDVLWLSWWLKETVPSNTTCCARCHAPAGLKGRYIGELDQSHFTCYAPVIVEPPTDLNVTEGMAAELKCRTGTSMTSVNWLTPNGTLMTHGSYRVRISVLHDGTLNFTNVTVQDTGQYTCMVTNSAGNTTASATLNVSAVDPVAAGGTGSGGGGPGGSGGVGGGSGGYTYFTTVTVETLETQPGEEALQPRGTEKEPPGPTTDGVWGGGRPGDAAGPASSSTTAPAPRSSRPTEKAFTVPITDVTENALKDLDDVMKTTK
modifications: FLAG tag or human Fc
With B2, in the experiment with FAM19A5 protein [4], the “binding to FAM19A5 protein (co-immunoprecipitation)” value was “able to bind to the FAM19A5 protein with varying degree”. Also, the EC50 in the experiment with FAM19A5 protein [3] (hFc-conjugated ectodomain coated 100 nM/well, FAM19A5 0.005-10 nM, 37° C. 1 hour) amounted to 0.64 nM.

The term EC50 denotes the concentration that produces a half-maximal response.
